This assay concerns the target human CD3 (CD3 epsilon as part of the T cell receptor complex) on cells (human) (UniProt P07766). Nature of the assay: flow cytometry on Jurkat cells, 10 nM antibody. In general terms: In flow cytometry, cells or beads pass a laser one at a time.

Sequence of human CD3 (CD3 epsilon as part of the T cell receptor complex) on cells (human) (P07766 23-207 limits assumed, one chain of several): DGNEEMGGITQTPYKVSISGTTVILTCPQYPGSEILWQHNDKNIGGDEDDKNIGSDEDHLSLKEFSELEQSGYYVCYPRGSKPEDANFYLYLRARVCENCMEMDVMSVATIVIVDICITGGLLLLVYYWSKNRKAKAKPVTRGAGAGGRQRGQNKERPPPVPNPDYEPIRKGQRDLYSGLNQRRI

Substance UCHT1 (antibody) had an MFI (arbitrary units) of 89200.

These data come from patent publication US20240025992A1.
